Tests used:
[1] = test system: HCE-T monolayers; test: In vitro scratch closure assay; type: cell-based, human; details: 10 nM, 24 h, compared to plain medium without growth factors
Procedure: For a scratch assay, confluent HCE-T monolayers were scraped in a straight line to create a scratch wound with a p200 pipet tip. Cells were rinsed with KSFM medium without BPE or EGF to remove debris and then incubated with fresh KSFM medium containing BPE (50 mg/ml) and EGF (5 ng/ml), LSI, or medium without growth factors (No treat). Phase contrast images of the wound at the beginning and after 24 h treatment were captured using Zeiss LSM 510 Meta confocal microscope system.

[2] = test system: HCE-T cells; test: Ca2+ imaging (Fluo-4 AM); type: cell-based, human
Procedure: SV40-immortalized HCE-T cells (Riken Cell Bank, Japan) were grown in keratinocyte-SFM media (KSFM, Life Technologies, Rockville, Md.) containing bovine pituitary extract (BPE, 50 mg/ml) and epidermal growth factor (EGF, 5 ng/ml). Cell passages 4-6 were used for Ca2+ imaging, scratch and uptake assays in 35 mm coverslip-bottomed dishes. To optimize responsiveness upon stimuli, cells were starved with EGF and BPE free medium for 24 h before experimentation.
HCE-Ts were rinsed twice with Ca2+ and Mg2+ free phosphate buffer saline (PBS) and incubated at 37° C. for 20 min fresh KSFM medium containing […] calcium probe Fluo-4 AM (Invitrogen Life technologies, NY). […] The cells were illuminated at 488 nm, and their emission was monitored every 3.15 s at 510 nm using Zeiss LSM 510 Meta confocal microscope system. The field of interest contained 24 to 45 cells, and the fluorescent intensity change was calculated for each region with image-analysis software. Ca2+ dynamics were evaluated using the changes in fluorescence intensity of Fluo-4 AM. The data are presented as percentage change in fluorescence intensity at each time point (Ft) to the first time point (F0) reading: (Ft−F0)/F0×100%.

[3] = test system: NOD mice corneal epithelium; test: Murine corneal abrasion and recovery study; type: in vivo, mouse
Procedure: Briefly, 12 week female NOD mice were anesthetized with an i.p. injection of xylaxine/ketamine (60-70 mg+5 mg/kg) and placed on a heating pad. After cleaning the ocular surface with eye wash (OCuSOFT, Inc., TX), the corneal epithelium of the right eye was removed down to the basement membrane using an algerbrush II (The Alger Company, Inc., TX); the left eye was left intact as a contra lateral control. Mice were allowed to heal for 24 h with 2 doses ([…]) of KSFM medium containing BPE (50 mg/ml) and EGF (5 ng/ml), […] LSI, […] SI, or no treatment at 12 h intervals. After staining the ocular surface with […] 0.6 mg/ml fluorescein (Akorn, Ill.), images of the abrasion wound were captured using a Moticam 2300 camera after 12 h and 24 h.

[4] = Phase behavior and nanoparticle formation (optical density, DLS, TEM); type: physicochemical; design: Phase transition temperature / Tt1, critical micelle temperature (CMT): dose or concentration left out as unconfirmed
Procedure: The phase diagram for LSI fusion protein was characterized by optical density change at 350 nm as a function of solution temperature using a DU800 UV-Vis Spectrophotometer (Beckman Coulter, Brea, Calif.). Tt was defined at the point of the maximum first derivative. Self-assembly of nanoparticles was measured using dynamic light scattering (DLS) using a DynaPro-LSR Plate Reader (Wyatt Technology, Santa Barbara, Calif.). Light scattering data were collected at regular temperature intervals (1° C.) as solutions were heated from 5 to 50° C. The results were analyzed using a Rayleigh sphere model and fitted into a cumulant algorithm based on the sum-of-squares value.
The TEM imaging was carried out on a FEI Tecnai 12 TWIN microscope (Hillsboro, Oreg.) at 100 kV. Briefly, a 100 uM solution (5 uL) was initially deposited on a copper grid with carbon film (CF400-Cu, Election Microscopy Sciences, Hatfield, Pa.). After removing the excess amount of solution with filter paper, the samples were negatively stained with 2% uranyl acetate, followed by removing excess uranyl acetate after 30 s. b The samples were then dried under room temperature for at least 3 h before use in imaging.

[5] = test system: HCE-Ts; test: Exogenous cell uptake assay (rhodamine labeled); type: cell-based, human; details: NHS-rhodamine labeled
Procedure: SI and LSI nanoparticles were conjugated with NHS-rhodamine (Thermo Fisher Scientific Inc, Rockford, Ill.) via covalent modification of the amino terminus. Conjugation was performed in 100 mM borate buffer (pH 8.0) for 2 h (LSI) or overnight (SI) at 4° C. followed by desalting on a PD10 column (GE Healthcare, Piscataway, N.J.) to remove free dye. Briefly, after the cells were rinsed with fresh medium without BPE and EGF, […] rhodamine labeled proteins were added into the dish. After incubation at 37° C. for different time points, the cells were rinsed and images were acquired using Zeiss LSM 510 Meta confocal microscope system.

B1: LSI: lacritin fused to diblock ELP (VPGSG)48(VPGIG)48; forms thermoresponsive nanoparticles (protein)
chain: GEDASSDSTGADPAQEAGTSKPNEEISGPAEPASPPETTTTAQETSAAAVQGTAKVTSSRQELNPLKSIVEKSILLTEQALAKAGKGMHGGVPGGKQFIENGSEFAQKLLKKFSLLKPWAGLVPRGSGVPGSGVPGIGY
modifications: ELP lacritin fusion construct; (129)..(133) the sequence VPGSG is directly repeated 48 times; (134)..(138) The sequence VPGIG is directly repeated 48 times
notes: forms thermoresponsive nanoparticles
Scratch wound healing [1]: significantly accelerated scratch wound healing | Maximum fluorescence intensity change compared to baseline (F0) ([2]; Fluo-4 AM loaded HCE-T cells): 4.399+/−1.043 fold | Ca2+ influx peak duration on second treatment ([2]; same concentration, second time, from 40): 70 s | Percentage of initial wound area (PctArea) ([3]; 5 ml of 100 mM topical at 0 and 12 h, 12 and 24 hours, compared to SI, EGF+BPE, no treatment): significantly decreased | Abrasion wound healing, LSI compared with LS96 ([3]; 12 h, eight mice per group): significantly (p<0.05) faster | Corneal epithelium histology after 24 h ([3]; hematoxylin and eosin): complete recovery | Tt1, critical micelle temperature (CMT) [4]: 32.3 °C | Hydrodynamic radius compared with LS96 ([4]; DLS, 37° C.): much larger hydrodynamic radius than LS96 | Nanoparticle size by DLS above Tt ([4]; above Tt): 130-140 nm | Nanoparticle size by DLS below Tt ([4]; below Tt): 30-40 nm | Average diameter by TEM ([4]; dried from room temperature): 67.1+/−11.5 nm | Phase transition temperature ([4]; optical density): 18.4 °C | Cytosolic fluorescence (cell uptake) [5]: significantly higher cytosolic fluorescence than SI nanoparticles | Time to significant cell entry [5]: 10 m
